To fix the notation:
T1: HcoV-OC43 S protein (HcoV-OC43, UniProt P36334 14-1297)
T1 sequence: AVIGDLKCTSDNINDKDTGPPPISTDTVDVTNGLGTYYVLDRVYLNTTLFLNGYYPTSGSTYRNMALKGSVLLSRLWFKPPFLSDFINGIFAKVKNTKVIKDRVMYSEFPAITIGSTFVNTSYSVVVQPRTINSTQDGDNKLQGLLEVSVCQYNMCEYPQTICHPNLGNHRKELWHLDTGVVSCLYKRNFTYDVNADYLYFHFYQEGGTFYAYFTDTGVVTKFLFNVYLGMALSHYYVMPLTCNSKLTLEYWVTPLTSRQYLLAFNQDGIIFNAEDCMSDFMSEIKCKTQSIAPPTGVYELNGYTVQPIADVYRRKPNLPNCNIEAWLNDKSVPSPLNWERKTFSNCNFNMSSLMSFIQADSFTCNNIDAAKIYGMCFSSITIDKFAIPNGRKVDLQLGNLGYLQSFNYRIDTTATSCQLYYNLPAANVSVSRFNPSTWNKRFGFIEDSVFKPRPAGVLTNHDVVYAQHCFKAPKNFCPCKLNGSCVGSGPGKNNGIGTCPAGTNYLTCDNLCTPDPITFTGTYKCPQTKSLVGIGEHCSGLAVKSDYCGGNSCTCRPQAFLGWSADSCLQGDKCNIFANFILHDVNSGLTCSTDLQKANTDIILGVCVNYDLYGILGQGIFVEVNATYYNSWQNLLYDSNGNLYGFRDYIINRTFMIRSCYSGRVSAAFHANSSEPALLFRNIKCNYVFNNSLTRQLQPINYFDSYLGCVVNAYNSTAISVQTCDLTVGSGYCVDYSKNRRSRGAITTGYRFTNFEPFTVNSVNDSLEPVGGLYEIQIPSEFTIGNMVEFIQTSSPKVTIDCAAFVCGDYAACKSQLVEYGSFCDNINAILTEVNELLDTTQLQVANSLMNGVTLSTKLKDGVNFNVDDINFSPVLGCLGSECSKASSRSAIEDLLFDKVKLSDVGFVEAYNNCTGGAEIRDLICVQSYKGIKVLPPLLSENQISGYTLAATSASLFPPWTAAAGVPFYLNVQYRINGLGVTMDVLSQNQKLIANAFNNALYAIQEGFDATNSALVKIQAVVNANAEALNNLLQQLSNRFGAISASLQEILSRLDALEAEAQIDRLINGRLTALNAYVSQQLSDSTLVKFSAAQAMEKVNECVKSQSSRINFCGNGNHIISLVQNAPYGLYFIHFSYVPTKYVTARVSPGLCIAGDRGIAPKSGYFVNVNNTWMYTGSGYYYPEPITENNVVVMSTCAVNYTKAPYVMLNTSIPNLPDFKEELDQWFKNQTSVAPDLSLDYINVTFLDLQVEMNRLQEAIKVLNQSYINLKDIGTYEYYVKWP

T2: HcoV-NL63 S protein (HcoV-NL63, UniProt Q6Q1S2 19-1296)
T2 construct: also called hCov-NL63 S1
T2 sequence: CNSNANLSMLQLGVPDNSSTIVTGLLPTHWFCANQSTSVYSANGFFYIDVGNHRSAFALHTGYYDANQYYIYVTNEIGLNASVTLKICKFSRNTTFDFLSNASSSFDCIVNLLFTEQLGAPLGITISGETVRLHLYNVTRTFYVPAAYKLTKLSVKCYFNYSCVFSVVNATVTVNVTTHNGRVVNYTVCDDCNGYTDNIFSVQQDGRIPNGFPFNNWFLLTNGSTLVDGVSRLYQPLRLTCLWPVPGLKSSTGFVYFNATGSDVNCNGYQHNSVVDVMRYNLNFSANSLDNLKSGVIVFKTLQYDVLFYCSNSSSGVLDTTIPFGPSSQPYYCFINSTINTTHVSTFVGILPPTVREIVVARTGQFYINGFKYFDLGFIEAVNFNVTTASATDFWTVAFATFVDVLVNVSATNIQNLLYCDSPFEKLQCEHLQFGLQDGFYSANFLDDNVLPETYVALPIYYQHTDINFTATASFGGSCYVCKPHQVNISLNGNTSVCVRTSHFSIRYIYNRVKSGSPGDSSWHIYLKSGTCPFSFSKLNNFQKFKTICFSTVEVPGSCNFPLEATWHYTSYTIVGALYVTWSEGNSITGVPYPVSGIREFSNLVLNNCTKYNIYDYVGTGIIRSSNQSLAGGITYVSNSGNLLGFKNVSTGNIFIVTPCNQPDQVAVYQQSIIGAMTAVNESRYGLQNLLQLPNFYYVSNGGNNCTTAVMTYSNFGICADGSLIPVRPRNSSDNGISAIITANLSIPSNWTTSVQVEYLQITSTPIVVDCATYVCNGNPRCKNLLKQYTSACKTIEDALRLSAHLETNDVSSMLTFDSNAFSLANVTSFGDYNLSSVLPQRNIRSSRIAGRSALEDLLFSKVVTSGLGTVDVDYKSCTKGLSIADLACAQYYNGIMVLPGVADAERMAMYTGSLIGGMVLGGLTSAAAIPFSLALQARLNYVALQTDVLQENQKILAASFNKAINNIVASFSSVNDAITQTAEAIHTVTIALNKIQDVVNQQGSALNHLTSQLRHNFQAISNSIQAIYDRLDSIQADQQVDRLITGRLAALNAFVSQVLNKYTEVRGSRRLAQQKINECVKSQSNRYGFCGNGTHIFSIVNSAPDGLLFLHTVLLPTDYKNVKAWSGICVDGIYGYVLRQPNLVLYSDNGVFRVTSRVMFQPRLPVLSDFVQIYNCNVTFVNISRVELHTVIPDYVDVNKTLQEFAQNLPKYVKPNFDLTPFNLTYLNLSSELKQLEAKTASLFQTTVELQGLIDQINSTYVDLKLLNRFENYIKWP

B1: rabbit monoclonal antibody 1D2 against the SARS-CoV-2 S1 (antibody, V domains shown)
VH: QSVEESGGRLVTPGTSLTLTCTVSGIDIETYWMSWVRQAPGKGLEWIAIITSHDHSGYANWAEGRFTISKTSTTVTLTITDLQPSDTGTYFCAKDVGHSTYDLWGPGTLVTVSS
VL: AAVLTQTPSPVSAAVGGTVTISCQSSESVLSNNRLSWYQQKPGQPPKLLIYAASTLASGVPSRFKGRGSGTQFTLTISDVQCDDAAMYVCAGAFSGSSDTRAFGGGTEVVVKG
B2: rabbit monoclonal antibody 1A3 against the SARS-CoV-2 S1 (antibody, V domains shown)
VH: QSLEESGGRLVTPGTPLTLTCTVSGFSFSSYHMGWVRQAPGEGLEWIGTLIGIAGNTYYASWAKGRFSISKTSTTVDLKMTSPTTEDTATYWCARIVTATFEFWGPGTLVTVSS
VL: AQVLTQTPSPVSAAVGGTVTISCQASQSVNMNLLSWFQQKPGQPPKLLIYQASNLASGVSARFKGSGSGTQFTLTINEIQCDDAATYYCQGDMGGWMFPFGGGTEVVVTG
B3: rabbit monoclonal antibody 9A5 against the SARS-CoV-2 S1 (antibody, V domains shown)
VH: QSVEESGGRLVTPGTPLTLTCTVSGFSLSAYQMIWVRQTPGKGLEYIGIMHTGTSAYYANWAKGRFTISKTSSTTVDLKMTSPTTEDTATYFCGRNLNEGFTGAYPFNLWGPGTLVAVSS
VL: DVVMTQTPASVEAAVGGTVTIKCQASQSIGSNLAWYQKKPGQPPKLLIYQASNLASGVPSRFKGSGSGTQFTLTISDLECADAATYYCQMNYYISSSYTYTFGGGTEVVVKG
B4: rabbit monoclonal antibody 1H1 against the SARS-CoV-2 S1 (antibody, V domains shown)
VH: QSLEESGGDLVKPGASLTLTCTASGFSFSSGYDMCWVRQAPGKGLEWIACIGTGSSGNIYYASWAKGRFTISKTSSTTVTLQMTSLTAADTATYFCARDDADYAGPDYFNLWGPGTLVTVSS
VL: DIVMTQTPASVSEPVGGTVTIKCQASESISNWLAWYQQKPGQPPKLLIYAAFTLASGVPSRFKGSGSGTQFTLTINGVECADAATYYCQQTYSSRDVDNVFGGGTEVVVKG
B5: rabbit monoclonal antibody 7G5 against the SARS-CoV-2 S1 (antibody, V domains shown)
VH: QEQLEESGGDLVKPGASLTLTCTASGFSFSSAYYMCWVRQAPGKGLEWIACIGVDSGGNSYYASWAKGRFTISTTSSTTVTLQMTSLTAADKATYFCTRSFSLWGPGTLVTISS
VL: RKWLTQTASSVSAAVGGTVTISCQASQSVYNNDNLAWFQQRPGQPPKLLIYLASNLASGVPPRFSGSGSGTQFTLTISDVQCDDAATYYCLGGYDCSNADCHAFGGGTEVVVKG

The first assay has as its target T3, SARS-CoV-2 Spike S1 protein (SARS-CoV-2, UniProt P0DTC2 16-685).
Test: not given
Molecule B1 returned a dissociation constant (Kd) of 3.55 nM, a koff of 0.000259 s⁻¹ and a kon of 72900 M⁻¹ s⁻¹.

B2 registered an equilibrium dissociation constant (Kd) of 0.537 nM, a koff of 9.34e-05 s⁻¹ and an on-rate constant (kon) of 174000 M⁻¹ s⁻¹.

As to B3, binding was characterised by a dissociation constant (Kd) of 0.87 nM, the koff came to 0.000115 s⁻¹ and the kon stood at 132000 M⁻¹ s⁻¹.

Consider B4, for which the affinity, expressed as Kd, was 2.06 nM; the koff stood at 0.000273 s⁻¹; the kon came out at 133000 M⁻¹ s⁻¹.

For the molecule B5, binding was put at a Kd of 2.14 nM, the dissociation rate constant (koff) was found to be 0.000261 s⁻¹ and the on-rate constant (kon) turned out to be 122000 M⁻¹ s⁻¹.

Another assay concerns the target T1, HcoV-OC43 S protein. The assay is described as follows: direct ELISA, OD450. In general terms: An ELISA detects its analyte on a solid surface through an enzyme-linked reagent.
For B1, the binding result was “no binding”.

For the molecule B2, the binding result was “no binding”.

For B3, the binding result is on record as “no binding”.

Turning to B4, the binding result was “no binding”.

B5: the binding result is “no binding”.

Another assay has as its target T2, HcoV-NL63 S protein. The assay is described as follows: direct ELISA, OD450.
For the molecule B1, the binding result is “no binding”.

As for B2, the binding result is reported as “no binding”.

Take B3: the binding result was “no binding”.

Turning to B4, the binding result is on record as “no binding”.

On to B5, for which the binding result was “no binding”.

A further assay concerns the target T3, SARS-CoV-2 Spike S1 protein.
Test: not given
The source holds these as a separate data set.
As to B4, the “EC50 (read off the curve)” value is ~0.04 µg/mL.

The next assay has as its target T4, RBD (receptor binding domain) of the SARS-CoV-2 S1 (SARS-CoV-2, UniProt P0DTC2 319-541).
T4 construct: domain: RBD; also called RBD domain protein
The assay is described as follows: direct antigen ELISA, RBD coated, antibody titrated, anti-rabbit IgG-HRP.
Turning to B1, the binding result was “no binding (tested: 1000 ng/ml)”.

Turning to B2, the binding result is on record as “no binding (tested: 1000 ng/ml)”.

One may read the Kd as the concentration at which binding is half-saturated. The low end stands for tighter binding, the high end for weaker binding. One may read the koff as the rate constant with which the complex falls apart. A low value points to slow dissociation. In general, kon refers to the second-order rate constant of association. One may read the EC50 (read off the curve) as the concentration needed to bring the measured effect to its halfway point. A high value points to weaker potency.

The values are drawn from patent publication US20220056111A1 (YUROGEN BIOSYSTEMS, published 2022).
